The values that follow are results of earlier work, collected in article PMC6815250.

By Ki is commonly meant the dissociation constant of the complex between target and ligand, obtained from inhibition or displacement.

In this data set the target is RgpB pro-fragment pro-fragment (Porphyromonas gingivalis) (UniProt P95493).

RgpB, sequence (P95493 230-736): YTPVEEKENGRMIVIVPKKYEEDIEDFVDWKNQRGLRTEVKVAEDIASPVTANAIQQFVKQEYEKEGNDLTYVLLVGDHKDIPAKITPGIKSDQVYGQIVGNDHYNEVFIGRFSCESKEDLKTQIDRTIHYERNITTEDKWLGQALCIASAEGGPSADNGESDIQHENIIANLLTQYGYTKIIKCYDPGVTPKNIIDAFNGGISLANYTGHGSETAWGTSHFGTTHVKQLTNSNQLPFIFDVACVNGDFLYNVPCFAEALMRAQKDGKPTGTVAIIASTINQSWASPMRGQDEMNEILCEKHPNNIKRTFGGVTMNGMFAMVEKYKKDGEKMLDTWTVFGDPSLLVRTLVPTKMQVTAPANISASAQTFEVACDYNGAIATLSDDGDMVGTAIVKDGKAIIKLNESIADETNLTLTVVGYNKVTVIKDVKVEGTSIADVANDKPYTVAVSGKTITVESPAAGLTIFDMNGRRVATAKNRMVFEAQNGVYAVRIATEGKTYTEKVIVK

With RgpB (from UniProt P95493), the Ki was 6.3 nM.
